Values quoted from earlier work in publication PMC6451094.

Target: TBP (Saccharomyces cerevisiae) (UniProt P13393)
UniProt P13393, sequence (P13393 2-240): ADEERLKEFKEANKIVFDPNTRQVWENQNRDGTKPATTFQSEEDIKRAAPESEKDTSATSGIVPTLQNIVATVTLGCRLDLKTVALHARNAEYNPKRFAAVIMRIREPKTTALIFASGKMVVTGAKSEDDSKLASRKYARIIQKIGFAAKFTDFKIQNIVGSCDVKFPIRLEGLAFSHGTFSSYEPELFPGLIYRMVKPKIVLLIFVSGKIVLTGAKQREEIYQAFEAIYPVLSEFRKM

Kd: 1.5 nM
Substance: Mot1 (from UniProt P32333)
